Experimental data published in PMC11218510, “Functional analysis of the methylerythritol phosphate pathway terminal enzymes IspG and IspH from Zymomonas mobilis” (Microbiology Spectrum, 2024).

Molecular target: the molecule itself
Assay: native gel or EMSA; 4%-16% Bis-Tris Native gel; 50 μM IspG, 50 μM IspH and a mixture of 25 μM each

B1: Z. mobilis Strep-tag II IspG (enzyme, UniProt Q5NR50 1-377, looked up)
chain: MSIRPWRHIERRKSRKIMVGNVAVGGDAPISVQTMTNTPTVDAQATIAQIKRCEAVGVDLIRVSCPDKESTAALKDIVRAAEVPIIADIHFHYKRALEAADAGAACLRINPGNIGSSERVAEVVRAAKANGCAIRIGVNAGSLEKELLEKYGEPCPDALVESALNHIKLLQDQDFHEFKVAVKASDVFLAVASYKALAKAVDCPLHLGITEAGGLIGGTVKSALGIGNLLWDGIGDTLRVSLSADPEQEVRVGYDILKTLDLRTRGVRVVSCPSCARQGFDVVKTVKALEERLAHIATPISLSILGCVVNGPGEARETDIGVTGGGQGKHMVFLSGVTDHTVEDAKMLDHIVSLVEAKAAEIEAEKAKEKAATVAAE
notes: IspG of Zymomonas mobilis ZM4; coding region amplified from genomic DNA; carries a [4Fe-4S] cluster (occupancy 5-10%); also called Z. mobilis IspG; ispGZM; source: E. coli PK13681 (BL21 (DE3) derivative) with pPK13651 (pET11a), purified anaerobically (Streptrap HP, PD-10 desalting); not shown: Strep-tag II, C-terminal, kept
- stoichiometry N: 2
